{"source": "patent US20210087522", "proteins": {"B1": {"name": "SPPT, Sfp-like phosphopantetheinyl transferase (PPTase) from Synechocystis sp. PCC6803 (protein)", "chain": "MLPQPQIWLCPTDRPLIPGYQALLSSEEMARGERYQRPQDKQRFLTMRLALRILLARQLDCLPQQLQFTYGPQGKPELVDRERRSPWFNVAHSGNYGLIGLSTEGEIGVDLQIMLPKPHYLKLAKRFFAPQEVQQLESLEGEKRTKLFYQLWTAKEAFLKATGKGISGGLNQVIPDENLAKYQYLPDSGDTNHWRLSSQPLLADQGSNDNYWMAIAWCTNEVNQVESNYLPNIQPFQWPRNLDSLP"}}, "key": {"[1]": {"biological_target": "T1, APNPCP, CP of an uncharacterized NRP/PK gene cluster from Anabaena", "T1 chain": "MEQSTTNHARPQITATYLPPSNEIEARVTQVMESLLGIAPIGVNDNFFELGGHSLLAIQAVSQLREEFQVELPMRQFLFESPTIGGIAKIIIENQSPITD"}, "[2]": {"biological_target": "AprACP, ACP of the apratoxin (PK/NRP) gene cluster in Lyngbya sp."}, "[3]": {"biological_target": "T2, MACP, CP of an uncharacterized NRP/PK gene cluster from M. aeruginosa NIES843", "T2 chain": "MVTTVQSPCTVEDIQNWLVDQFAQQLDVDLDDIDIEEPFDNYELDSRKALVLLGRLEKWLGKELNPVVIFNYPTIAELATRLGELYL"}, "[4]": {"biological_target": "T3, SFACP, ACP of the FAS from Synechocystis", "T3 chain": "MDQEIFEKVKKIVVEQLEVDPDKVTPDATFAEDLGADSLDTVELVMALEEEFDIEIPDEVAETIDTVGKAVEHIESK"}, "[5]": {"biological_target": "T4, FNPCP, CP of an uncharacterized NRP gene cluster from Fischerella", "T4 chain": "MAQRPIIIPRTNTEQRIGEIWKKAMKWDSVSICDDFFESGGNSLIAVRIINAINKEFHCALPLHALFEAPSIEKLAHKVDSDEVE"}, "[6]": {"biological_target": "ScACP, ACP of a putative concanamycin gene cluster from Streptomyces coelicolor A(3)2"}, "[7]": {"biological_target": "T5, FNsACP, homolog of ArCPNp from Fischerella", "T5 chain": "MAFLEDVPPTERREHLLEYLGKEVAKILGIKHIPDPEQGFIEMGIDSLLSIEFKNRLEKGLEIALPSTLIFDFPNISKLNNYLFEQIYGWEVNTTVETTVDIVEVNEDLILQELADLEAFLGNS"}, "[8]": {"biological_target": "T6, FisPCP, PCP of the shinorine gene cluster from Fischerella", "T6 chain": "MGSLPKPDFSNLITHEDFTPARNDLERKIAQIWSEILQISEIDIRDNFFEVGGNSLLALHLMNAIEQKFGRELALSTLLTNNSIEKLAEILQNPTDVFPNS"}, "[9]": {"biological_target": "T7, SsPCP, PCP of a thaxtomin cluster from Streptomyces scabiei 87.22", "T7 chain": "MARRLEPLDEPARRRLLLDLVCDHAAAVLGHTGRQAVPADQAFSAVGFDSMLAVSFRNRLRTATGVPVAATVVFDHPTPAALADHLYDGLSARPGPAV"}, "[10]": {"biological_target": "T8, AFACP, ACP of the FAS from Anabaena", "T8 chain": "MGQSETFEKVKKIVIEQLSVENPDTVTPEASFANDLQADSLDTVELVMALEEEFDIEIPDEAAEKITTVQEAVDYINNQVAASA"}, "[11]": {"biological_target": "T9, APACP, ACP of the glycolipid PKS in Anabaena", "T9 chain": "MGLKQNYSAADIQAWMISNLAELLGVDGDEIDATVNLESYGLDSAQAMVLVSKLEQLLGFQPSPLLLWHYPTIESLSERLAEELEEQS"}}, "data": [{"protein": "B1", "values": [{"measurement": "Km", "setting": "[1]", "value": 17, "unit": "µM"}, {"measurement": "kcat", "setting": "[1]", "value": 0.0383, "unit": "s⁻¹"}, {"measurement": "kcat/Km", "setting": "[1]", "value": 1670, "unit": "M⁻¹ s⁻¹"}, {"measurement": "phosphopantetheinylation of CP (apo to holo), LC-MS", "setting": "[1]", "value": "SPPT also phosphopantetheinylated all CP substrates except ScACP"}, {"measurement": "Km", "setting": "[2]", "value": 12.9, "unit": "µM"}, {"measurement": "kcat", "setting": "[2]", "value": 0.218, "unit": "s⁻¹"}, {"measurement": "kcat/Km", "setting": "[2]", "value": 16700, "unit": "M⁻¹ s⁻¹"}, {"measurement": "phosphopantetheinylation of CP (apo to holo), LC-MS", "setting": "[2]", "value": "SPPT also phosphopantetheinylated all CP substrates except ScACP"}, {"measurement": "relative conversion (most active PPTase = 100%)", "setting": "[2]", "value": "SPPT promoted >71% relative conversion of eight cyanobacterial CPs"}, {"measurement": "Km", "setting": "[3]", "value": 22, "unit": "µM"}, {"measurement": "kcat", "setting": "[3]", "value": 0.0717, "unit": "s⁻¹"}, {"measurement": "kcat/Km", "setting": "[3]", "value": 3330, "unit": "M⁻¹ s⁻¹"}, {"measurement": "phosphopantetheinylation of CP (apo to holo), LC-MS", "setting": "[3]", "value": "SPPT also phosphopantetheinylated all CP substrates except ScACP"}, {"measurement": "relative activity (most active PPTase = 100%)", "setting": "[3]", "value": "the low or no activity toward MACP, SsPCP and ScACP"}, {"measurement": "Km", "setting": "[4]", "value": 1.5, "unit": "µM"}, {"measurement": "kcat", "setting": "[4]", "value": 0.0233, "unit": "s⁻¹"}, {"measurement": "kcat/Km", "setting": "[4]", "value": 6500, "unit": "M⁻¹ s⁻¹"}, {"measurement": "phosphopantetheinylation of CP (apo to holo), LC-MS", "setting": "[4]", "value": "SPPT also phosphopantetheinylated all CP substrates except ScACP"}, {"measurement": "relative conversion (most active PPTase = 100%)", "setting": "[4]", "value": "SPPT promoted >71% relative conversion of eight cyanobacterial CPs"}, {"measurement": "Km", "setting": "[5]", "value": 7, "unit": "µM"}, {"measurement": "kcat", "setting": "[5]", "value": 0.168, "unit": "s⁻¹"}, {"measurement": "kcat/Km", "setting": "[5]", "value": 23300, "unit": "M⁻¹ s⁻¹"}, {"measurement": "phosphopantetheinylation of CP (apo to holo), LC-MS", "setting": "[5]", "value": "SPPT also phosphopantetheinylated all CP substrates except ScACP"}, {"measurement": "phosphopantetheinylation of CP (apo to holo), LC-MS; not modified", "setting": "[6]", "value": "SPPT also phosphopantetheinylated all CP substrates except ScACP"}, {"measurement": "relative activity (most active PPTase = 100%)", "setting": "[6]", "value": "the low or no activity toward MACP, SsPCP and ScACP"}, {"measurement": "Km", "setting": "[7]", "value": 14.1, "unit": "µM"}, {"measurement": "kcat", "setting": "[7]", "value": 0.025, "unit": "s⁻¹"}, {"measurement": "kcat/Km", "setting": "[7]", "value": 1670, "unit": "M⁻¹ s⁻¹"}, {"measurement": "phosphopantetheinylation of CP (apo to holo), LC-MS", "setting": "[7]", "value": "SPPT also phosphopantetheinylated all CP substrates except ScACP"}, {"measurement": "relative conversion (most active PPTase = 100%)", "setting": "[7]", "value": "SPPT promoted >71% relative conversion of eight cyanobacterial CPs"}, {"measurement": "Km", "setting": "[8]", "value": 10, "unit": "µM"}, {"measurement": "kcat", "setting": "[8]", "value": 0.0417, "unit": "s⁻¹"}, {"measurement": "kcat/Km", "setting": "[8]", "value": 5000, "unit": "M⁻¹ s⁻¹"}, {"measurement": "phosphopantetheinylation of CP (apo to holo), LC-MS", "setting": "[8]", "value": "SPPT also phosphopantetheinylated all CP substrates except ScACP"}, {"measurement": "Km", "setting": "[9]", "value": 14.3, "unit": "µM"}, {"measurement": "kcat", "setting": "[9]", "value": 0.0167, "unit": "s⁻¹"}, {"measurement": "kcat/Km", "setting": "[9]", "value": 1000, "unit": "M⁻¹ s⁻¹"}, {"measurement": "phosphopantetheinylation of CP (apo to holo), LC-MS", "setting": "[9]", "value": "SPPT also phosphopantetheinylated all CP substrates except ScACP"}, {"measurement": "relative activity (most active PPTase = 100%)", "setting": "[9]", "value": "the low or no activity toward MACP, SsPCP and ScACP"}, {"measurement": "Km", "setting": "[10]", "value": 13.3, "unit": "µM"}, {"measurement": "kcat", "setting": "[10]", "value": 0.245, "unit": "s⁻¹"}, {"measurement": "kcat/Km", "setting": "[10]", "value": 18300, "unit": "M⁻¹ s⁻¹"}, {"measurement": "phosphopantetheinylation of CP (apo to holo), LC-MS", "setting": "[10]", "value": "SPPT also phosphopantetheinylated all CP substrates except ScACP"}, {"measurement": "relative conversion (most active PPTase = 100%)", "setting": "[10]", "value": "SPPT promoted >71% relative conversion of eight cyanobacterial CPs"}, {"measurement": "Km", "setting": "[11]", "value": 26.5, "unit": "µM"}, {"measurement": "kcat", "setting": "[11]", "value": 0.243, "unit": "s⁻¹"}, {"measurement": "kcat/Km", "setting": "[11]", "value": 8330, "unit": "M⁻¹ s⁻¹"}, {"measurement": "phosphopantetheinylation of CP (apo to holo), LC-MS", "setting": "[11]", "value": "SPPT also phosphopantetheinylated all CP substrates except ScACP"}, {"measurement": "relative conversion (most active PPTase = 100%)", "setting": "[11]", "value": "SPPT promoted >71% relative conversion of eight cyanobacterial CPs"}]}]}
